# Positions count from the first letter of the chain named. Names may count otherwise. Like-named read-outs stand apart in the source and are kept apart here.
# T1: TGFβ3 (R&D Systems) (Homo sapiens (Human), UniProt P10600 301-412, Active TGFβ3 is a disulfide-linked homodimer of this chain; one copy is given.)
# T1 construct: also called TGFB3
# T1 sequence: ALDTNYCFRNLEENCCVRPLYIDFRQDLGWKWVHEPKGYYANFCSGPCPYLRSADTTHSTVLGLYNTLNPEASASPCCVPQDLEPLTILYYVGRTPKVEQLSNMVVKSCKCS
# T2: canine TGFβ2 (canine, UniProt A0A8I3PZZ6 331-442)
# T2 sequence: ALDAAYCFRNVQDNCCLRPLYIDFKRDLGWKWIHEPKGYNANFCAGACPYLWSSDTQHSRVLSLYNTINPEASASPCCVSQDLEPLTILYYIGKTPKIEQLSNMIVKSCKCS
# T3: canine TGFβ3 (canine, UniProt A0A8I3S1P1 346-457)
# T3 sequence: T1 sequence
# B1: felHclb_heterochimera-14 (antibody, V domains shown)
# VH: QVLLVQSGAEVRTPGASVKIFCKASGYIFITYYMHWVRQSPAQGLEWMGQIFPASGSTNYNEMFEGRLTLTADTSTNTAYMELSSLRSADTAMYYCARGDGNYALDAMDYWGQGTSVTVSS
# VL: DIVLTQTPASLAVSLGQRATISCRASESVDSYGNSFMHWYQQKSGQPPKLLIYLASNLESGVPARFSGSGSRTDFTLTIDPVEADDAATYYCQQNNEDPLTFGAGTK
# notes: hetero-pairing; also called felHclbH1-1x/mHclbVL
# B2: felHclb_heterochimera-4 (antibody, V domains shown)
# VH: B1 VH
# VL: DIVMTQTPPSLSVSPRETASISCRASESVDSYGNSFMHWYLQKPGQSPQLLIYLASNLESGVSDRFSGSGSGTDFTLRISRVEANDTGVYYCQQNNEDPLTFGQ
# notes: hetero-pairing
# B3: felHclb_heterochimera-15 (antibody, V domains shown)
# VH: QVLLVQSGAEVRKPGASVKIFCKASGYTFITYYMHWLRQAPEQGLEWMGRIFPASGSTSYAQKFQGRLTLTADTSTNTAYMELSSLRSADTAMYYCARGDGNYALDAMDYWGQGALVTVSS
# VL: B1 VL
# notes: hetero-pairing; also called felHclbH618s/mHclbVL
# B4: felHclb_heterochimera-11 (antibody, V domains shown)
# VH: B3 VH with K13R, T28I, E42A, L45F, R50S, N77D, M93V, Q113H, A115T, L116I
# VL: B1 VL
# notes: hetero-pairing; also called felHclbH636/mHclbVL
# B5: felHclb_heterochimera-16 (antibody, V domains shown)
# VH: B3 VH with R50Q, S59N, A61N, Q62E, K63M, Q65E
# VL: B1 VL
# notes: hetero-pairing; also called felHclbH618x/mHclbVL
# B6: felHclb_heterochimera-13 (antibody, V domains shown)
# VH: B1 VH with T13R, V37L, S40A, L45F, N77D, M93V, Q113H, S116I
# VL: B1 VL
# notes: hetero-pairing; also called felHclbH636x/mHclbVL
# B7: felHclb_heterochimera-12 (antibody, V domains shown)
# VH: B1 VH with Q50S, N59S, N61A, E62Q, M63K, E65Q
# VL: B1 VL
# notes: hetero-pairing; also called felHclbH1-1/mHclbVL
# B8: felHclb_heterochimera-2 (antibody, V domains shown)
# VH: B1 VH with Q50S, N59S, N61A, E62Q, M63K, E65Q
# VL: B2 VL
# notes: hetero-pairing
# B9: felHclb_heterochimera-1 (antibody, V domains shown)
# VH: B3 VH with K13R, T28I, E42A, L45F, R50S, N77D, M93V, Q113H, A115T, L116I
# VL: B2 VL
# notes: hetero-pairing
# B10: felHclb_heterochimera-5 (antibody, V domains shown)
# VH: B3 VH
# VL: B2 VL
# notes: hetero-pairing
# B11: Can04H09 VH3/VL4 (antibody, V domains shown)
# VH: EVQLVQSAAEVKKPGASVKVSCKTSGYTFTSSWMNWVQQAPGAGLDWMGQIYPGDGDTNYNGKFKGRVTLTADTSTSTAYMELSSLRAEDTAVYYCARHYDGSTDYWGQGTLVTVSS
# VL: EIVMTQSPASLSLSQGEKVTITCRASENIYSNLAWYQQRPGQAPKLLIYAATNLADGVPSRFSGSGSGTDFSLTISSLEPEDVAVYYCQHFWGTPYTFGQGTK
# B12: Can04H09 VH1/VL3 (antibody, V domains shown)
# VH: B11 VH with A8G, T30I, Q38R, E89G, T91I
# VL: B11 VL with G16E, R39K, L73F
# B13: Can04H09 VH2/VL4 (antibody, V domains shown)
# VH: B11 VH with T28S, A43K, T74K, A88S, T91A
# VL: B11 VL
# B14: Can04H09 VH3/VL3 (antibody, V domains shown)
# VH: B11 VH
# VL: B11 VL with G16E, R39K, L73F
# B15: Can-SL501-VH3 Y111T / Can-SL501-VL2 (antibody, V domains shown)
# VH: EVQLVESGGDLVKPGGSLRLSCVASGFTFSSYGMHWVRQAPGKELEWVAVISYDGSIKYYADAVKGRFTISRDNAKNTLYLQMNSLRAEDTAVYYCARTGEYSGYDTDPQTSWGQGTTVTVSS
# VL: EIVMTQSPGSLAGSAGESVSINCRASQGIGDDLGWYQQKPGERPKLLIYGTSTLQSGVPARFSSSGSGTDFTLTINNLQAEDVGDYYCLQDSNYPLTFGAGTK
# B16: Chimera-SL501-VH/Can-SL501-VL1 (antibody, V domains shown)
# VH: B15 VH with D10G, L11V, K13Q, G16R, V23A, A63S, A75S, T111Y
# VL: EIVMTQSPASLSLSQEEKVTITCRASQGIGDDLGWYQQKPGQAPKLLIYGTSTLQSGVPSRFSGSGSGTDFSFTISSLEPEDVAVYYCLQDSNYPLTFGAGTK
# notes: also called heterochimeric SL501
# B17: Can-SL501-VH3 S112Q / Can-SL501-VL2 (antibody, V domains shown)
# VH: B15 VH with T111Y, S112Q
# VL: B15 VL
# B18: Chimera-SL501-VH/CanSL501-VL-hybrid (antibody, V domains shown)
# VH: B15 VH with D10G, L11V, K13Q, G16R, V23A, A63S, A75S, T111Y
# VL: B16 VL with M4L, A9S, L13A, Q15V, E16G, E17D, K18R, A100G
# notes: constant regions not restated
# B19: mouse SL501 (antibody, V domains shown)
# VH: B15 VH with D10G, L11V, K13Q, G16R, V23A, A63S, A75S, T111Y
# VL: EIVLTQSPSSLSASVGDRVTITCRASQGIGDDLGWYQQKPGKAPILLIYGTSTLQSGVPSRFSGSGSGTDFTLTINSLQPEDFATYYCLQDSNYPLTFGGGTK
# notes: called engineered mouse antibody and also precursor human antibody from phage display; also called mouse-SL501-VH/mouse-SL501-VL; SL501 (murine)
# B20: Chimera-SL501-VH/Can-SL501-VL2 (antibody, V domains shown)
# VH: B15 VH with D10G, L11V, K13Q, G16R, V23A, A63S, A75S, T111Y
# VL: B15 VL
# notes: as for B16
# B21: Can-SL501_VH1/CanSL501-VL-hybrid (antibody, V domains shown)
# VH: B15 VH with E44G, E46Q, A61T, K76R, L79V, R98K, T111Y, T118L
# VL: B19 VL with K42Q, I45K, T72S, L73F, N76S, Q79E, F83V, T85V
# notes: constant regions not restated
# B22: Can-SL501-VH1/Chimera-SL501-VL (antibody, V domains shown)
# VH: B15 VH with E44G, E46Q, A61T, K76R, L79V, R98K, T111Y, T118L
# VL: B19 VL
# notes: as for B16
# B23: Can-SL501_VH2/Chimera-SL501-VL (antibody, V domains shown)
# VH: B15 VH with E44G, E46Q, V93M, R98K, T111Y, T118L
# VL: B19 VL
# notes: as for B16
# B24: Can-SL501-VH3 S112E / Can-SL501-VL2 (antibody, V domains shown)
# VH: B15 VH with T111Y, S112E
# VL: B15 VL
# B25: Can-SL501-VH3 S112D / Can-SL501-VL2 (antibody, V domains shown)
# VH: B15 VH with T111Y, S112D
# VL: B15 VL
# B26: Can-SL501-VH3 Y111E / Can-SL501-VL2 (antibody, V domains shown)
# VH: B15 VH with T111E
# VL: B15 VL
# What was measured:
# [1] = biological target: T1, TGFβ3 (R&D Systems); assay: SPR
# [2] = biological target: canine TGFβ1 (canine, UniProt P54831 279-390, limits assumed); assay: SPR, TGFβ on chip
# canine TGFβ1, sequence (P54831 279-390 limits assumed): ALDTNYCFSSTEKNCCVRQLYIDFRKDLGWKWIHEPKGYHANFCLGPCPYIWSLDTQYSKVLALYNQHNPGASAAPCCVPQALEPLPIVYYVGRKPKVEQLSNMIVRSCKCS
# Source text: (§1) To avoid affinity differences associated with differential surface preparation that can occur when immobilizing antibodies to surfaces, TGFβ1, TGFβ2, and TGFβ3 (R&D Systems) were directly conjugated to the individual surface. Immobilization was obtained by amine coupling […] using N-hydroxysuccinimide (NHS)/1-Ethyl-3-(3-dimethylaminopropyl) carbodiimide (EDC) chemistry. Chips were quenched with ethanolamine and the affinity with which all candidate mAbs bound to the immobilized TGFβ was evaluated. All curves were fit to a 1:1 model. Affinities <10⁻¹¹ are below the lower limit of quantitation of detection for the instrument.
# [3] = biological target: T2, canine TGFβ2; assay: SPR, TGFβ on chip
# Source text: as §1
# [4] = biological target: T3, canine TGFβ3; assay: SPR, TGFβ on chip
# Source text: as §1
# [5] = biological target: TGFβ1 (R&D Systems); assay: cell-based or functional assay
# [6] = biological target: T1, TGFβ3 (R&D Systems); assay: cell-based or functional assay
# [7] = biological target: T4, TGFβ1 (R&D Systems); assay: single point SPR
# T4 construct: also called TGFB1
# T4 sequence (P01137 279-390): as the sequence (P54831 279-390 limits assumed) above
# [8] = biological target: T4, TGFβ1 (R&D Systems); assay: SPR full titration
# [9] = biological target: T4, TGFβ1 (R&D Systems); assay: cell-based or functional assay; remark: listed apart in the source
# [10] = biological target: T4, TGFβ1 (R&D Systems); assay: SPR full titration; remark: listed apart in the source
binder,measurement,setting,value
B1,binding result,[1],no binding
B2,binding result,[1],no binding
B3,binding result,[1],no binding
B4,binding result,[1],no binding
B5,binding result,[1],no binding
B6,binding result,[1],no binding
B7,binding result,[1],no binding
B8,binding result,[1],no binding
B9,binding result,[1],no binding
B10,binding result,[1],no binding
B11,Kd,[2],1.38 nM
same,Kd,[3],32.1 nM
same,Kd,[4],6.06 nM
same,"CMVIC pSmad-3, IC50",[5],0.74 nM
same,"CMVIC pSmad-3, IC50",[6],52.8 nM
B12,Kd,[2],2.43 nM
same,Kd,[3],32 nM
same,Kd,[4],6.52 nM
same,"CMVIC pSmad-3, IC50",[5],0.66 nM
same,"CMVIC pSmad-3, IC50",[6],467 nM
B13,Kd,[2],1.42 nM
same,Kd,[3],32.9 nM
same,Kd,[4],6.03 nM
same,"CMVIC pSmad-3, IC50",[5],0.84 nM
same,"CMVIC pSmad-3, IC50",[6],69.5 nM
B14,Kd,[2],2.79 nM
same,Kd,[3],48.8 nM
same,Kd,[4],9.08 nM
same,"CMVIC pSmad-3, IC50",[5],1.18 nM
same,"CMVIC pSmad-3, IC50",[6],72.8 nM
B15,Kd,[7],0.457 nM
same,Kd,[8],0.0235 nM
same,"CMVIC pSmad-3, IC50",[9],19.6 nM
B16,Kd,[10],60.8 nM
B17,Kd,[7],4.8 nM
same,Kd,[8],0.00909 nM
same,"CMVIC pSmad-3, IC50",[9],5.02 nM
B18,Kd,[10],0.0428 nM
B19,Kd,[10],0.00705 nM
B20,Kd,[10],0.000192 nM
B21,Kd,[10],4.01 nM
B22,Kd,[10],1100 nM
B23,Kd,[10],1090 nM
B24,Kd,[7],0.487 nM
same,Kd,[8],0.0153 nM
same,"CMVIC pSmad-3, IC50",[9],5.03 nM
B25,Kd,[7],7 nM
same,Kd,[8],0.0196 nM
same,"CMVIC pSmad-3, IC50",[9],8.78 nM
B26,Kd,[7],4.98 nM
same,Kd,[8],0.0238 nM
same,"CMVIC pSmad-3, IC50",[9],46.9 nM

# From patent publication US20220119513A1 (ZOETIS SERVICES, published 2022)
